Data reported in patent US20250243260A1 (ALPINE IMMUNE SCIENCES, published 2025).

Tests used:
[1] = target: T1, human CD28 on cells (human, UniProt P10747 19-220); test: cell-based or functional assay
[2] = target: T1, human CD28 on cells; test: flow cytometry, primary human T cells
Protocol: Binding affinity to CD28 was determined using primary human T cells which endogenously express CD28. Binding to PD-L1 was determined using SCC152 cells transduced with human PD-L1. Binding to CTLA-4 was measured using Chinese hamster ovary (CHO) cells stably transduced to express human CTLA-4.
For staining and analysis by flow cytometry, 75,000 human T cells, SCC152/PD-L1 cells, or CHO/CTLA-4 cells were plated in 96-well round-bottom plates. Cells were spun down and resuspended in staining buffer (PBS (phosphate buffered saline), 1% BSA (bovine serum albumin), 1 mM EDTA, and 0.1% sodium azide) for 20 minutes to block non-specific binding. Afterwards, cells were centrifuged, stain buffer aspirated, and then resuspended in 50 μL of a 1:5 serial dilution of each CD80-Fc candidate variant starting at 100 nM ending at 0.8 nM. Primary staining was performed on ice for 60 minutes, before washing cells in […] staining buffer three times. PE-conjugated anti-human Fc (Jackson ImmunoResearch, USA) was diluted 1:250 in 50 μL staining buffer and added to cells and incubated another 30 minutes at 4° C. Cells were washed two times in 150 μL stain buffer and then fixed in 2% formaldehyde/PBS for 5 minutes at room temperature. Samples were analyzed CytoFLEX LX flow cytometer (Beckman Coulter, USA). Median Fluorescence Intensity (MFI) was calculated for each cell type using the CytExpert software from Beckman Coulter.
Binding assays were carried out to assess the specificity and affinity of multivalent proteins to cell-expressed CTLA-4, CD28, and PD-L1 counter structures.

[3] = target: human CD28 (endogenously expressed on primary human T cells) (human) (UniProt P10747); test: flow cytometry, primary human T cells
[4] = target: human CTLA-4 (human) (UniProt P16410); test: flow cytometry on CHO/CTLA-4 cells
Chain of human CTLA-4 (human) (P16410 36-223): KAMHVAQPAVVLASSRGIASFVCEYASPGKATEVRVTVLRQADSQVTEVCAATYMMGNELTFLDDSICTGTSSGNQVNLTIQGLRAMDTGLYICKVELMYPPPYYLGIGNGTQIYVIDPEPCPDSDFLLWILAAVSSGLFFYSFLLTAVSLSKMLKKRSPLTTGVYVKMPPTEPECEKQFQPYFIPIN

Row | Substance | MFI (anti-human Fc) at 0.8 nM [3] [MFI] | MFI (anti-human Fc) at 4 nM [3] [MFI] | MFI (anti-human Fc) at 20 nM [3] [MFI] | MFI (anti-human Fc) at 100 nM [3] [MFI] | fold change of MFI vs WT CD80 at 20 nM [3] [fold] | other results
1 | WT CD80 ECD-Fc IgG4 (Fc fusion) | – | – | – | – | – | Rel. Luminescence Units (RLU) at 2 nM, K562/OKT3/PD-L1 + Jurkat/IL-2 reporter [1]: 2830 RLU; Rel. Luminescence Units (RLU) at 10 nM, K562/OKT3/PD-L1 + Jurkat/IL-2 reporter [1]: 2660 RLU; Rel. Luminescence Units (RLU) at 50 nM, K562/OKT3/PD-L1 + Jurkat/IL-2 reporter [1]: 2440 RLU; Rel. Luminescence Units (RLU) at 250 nM, K562/OKT3/PD-L1 + Jurkat/IL-2 reporter [1]: 2640 RLU; Anti-Human Fc (MFI) at 0.8 nM [2]: 178 MFI; Anti-Human Fc (MFI) at 4 nM [2]: 168 MFI; Anti-Human Fc (MFI) at 20 nM [2]: 180 MFI; Anti-Human Fc (MFI) at 100 nM [2]: 184 MFI
2 | CD80_223-Fc, variant CD80 IgV-Fc E10S/V68M/Y87P (Fc fusion) | 190 | 195 | 223 | 318 | 1.2 | –
3 | CD80_227-Fc, variant CD80 IgV-Fc V11W/T28H/D46Q/V68L/L85E (Fc fusion) | 193 | 209 | 224 | 283 | 1.2 | –
4 | wild-type CD80 ECD-Fc (unmodified CD80 ECD fused to IgG4 Fc) (Fc fusion) | 178 | 168 | 180 | 184 | – | –
5 | CD80_196-Fc, variant CD80 IgV-Fc V11Y/M42W/E52K/T62A/L85E (Fc fusion) | 245 | 247 | 274 | 301 | 1.5 | –
6 | CD80_168 variant CD80 IgV-Fc (K9N, E10G, N63S, L85E) (Fc fusion) | – | – | – | – | – | MFI at 0.8 nM [4]: 415 MFI; MFI at 4 nM [4]: 631 MFI; MFI at 20 nM [4]: 830 MFI; MFI at 100 nM [4]: 3160 MFI; fold change vs WT CD80 at 20 nM [4]: 0 fold
7 | CD80_181-Fc, variant CD80 IgV-Fc K9S/E10R/V11Y/M47L/A71G (Fc fusion) | – | 212 | – | 313 | – | –
